Results: patent US20240360223A1 (DRAGONFLY THERAPEUTICS, published 2024)
Substitutions are numbered along the chain they refer to. Like-named read-outs stand apart in the source and are kept apart here. Blank lines part the entries; values can stand above or below the binder they belong to.

Legend:
[1] = molecular target: T1, human BAFF-R expressed on cells (human, UniProt Q96RJ3 1-184); assay: flow cytometry, Raji cells
T1 construct: Cell surface BAFF-R, endogenous on B cell lines and primary B cells or overexpressed on isogenic CHO cells; also called hBAFF-R; hBAFF-R-CHO

[2] = molecular target: T1, human BAFF-R expressed on cells; assay: flow cytometry, human BAFF-R CHO cells
Excerpt: Isogenic cell lines overexpressing human and cynomolgus BAFF-R on the backbone of CHO cell line were designed.

[3] = molecular target: T2, human NKG2D expressed on cells (human, UniProt P26718 1-216); assay: flow cytometry on KHYG-1 cells (no CD16), MFI
T2 construct: whole, on cells; also called NKG2D on KHYG-1 cells; NKG2D-positive NK cells and CD8+ T cells
T2 sequence (looked up): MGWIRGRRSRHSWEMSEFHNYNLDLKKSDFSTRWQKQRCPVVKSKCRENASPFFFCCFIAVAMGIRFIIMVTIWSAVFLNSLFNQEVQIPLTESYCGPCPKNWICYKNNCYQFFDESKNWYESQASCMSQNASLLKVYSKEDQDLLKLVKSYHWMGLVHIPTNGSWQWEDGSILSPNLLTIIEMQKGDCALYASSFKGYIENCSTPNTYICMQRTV

[4] = molecular target: T1, human BAFF-R expressed on cells; assay: flow cytometry, SUDHL-6 cells
[5] = molecular target: T1, human BAFF-R expressed on cells; assay: flow cytometry, Rs4;11 cells
[6] = molecular target: T1, human BAFF-R expressed on cells; assay: flow cytometry, human BAFF-R+ isogenic CHO
Excerpt: Isogenic cell lines overexpressing human and cynomolgus BAFF-R were developed from CHO cells.

[7] = molecular target: T1, human BAFF-R expressed on cells; assay: flow cytometry, RL cells
[8] = molecular target: T1, human BAFF-R expressed on cells; assay: flow cytometry, Jeko-1 cells
[9] = molecular target: T1, human BAFF-R expressed on cells; assay: flow cytometry, BJAB cells
[10] = molecular target: T1, human BAFF-R expressed on cells; assay: flow cytometry, CHO-hBAFF-R cells
[11] = molecular target: T1, human BAFF-R expressed on cells; assay: flow cytometry, human BAFF-R CHO cells; remark: listed apart in the source
[12] = molecular target: T1, human BAFF-R expressed on cells; assay: flow cytometry, human BAFF-R CHO cells; remark: listed apart in the source
[13] = molecular target: T1, human BAFF-R expressed on cells; assay: flow cytometry, BAFF-R-CHO cells
[14] = molecular target: T3, cynomolgus monkey BAFF-R expressed on cells (cynomolgus monkey); assay: flow cytometry, cyno BAFF-R CHO cells
T3 construct: whole, on cells; also called cBAFF-R; cynoBAFF-R

[15] = molecular target: T1, human BAFF-R expressed on cells; assay: flow cytometry, BAFF-R CHO cells; isogenic CHO cells; human and cynomolgus not told apart
[16] = molecular target: T3, cynomolgus monkey BAFF-R expressed on …; assay: flow cytometry, cyno BAFF-R CHO cells; remark: listed apart in the source
[17] = molecular target: T1, human BAFF-R expressed on cells; assay: blocking of BAFF-biotin on hBAFF-R CHO cells
[18] = molecular target: T1, human BAFF-R expressed on cells; assay: blocking of BAFF-biotin on hBAFF-R CHO cells, flow cytometry
Experimental: Briefly, CHO cells expressing human BAFF-R were harvested, washed in cold FACS buffer, and seeded at a density of 100,000 cells per well. Test articles were diluted in FACS buffer, and 50 μL of diluted multispecific binding protein or mAb was added to cells, incubated on ice for 60 minutes, then washed with FACS buffer. […] Cells were incubated with 100 μL of 1:200 streptavidin-PE diluted in FACS buffer and incubated on ice for 30 minutes then washed with FACS buffer. Cells were then incubated in 100 μL of 1:1,000 dilution of live/dead dye in PBS for 15 minutes, then washed with FACS buffer, and fixed. After incubation, cells were washed with FACS buffer and resuspended in FACS buffer for analysis with flow cytometry. Median fluorescent intensity (MFI) of each sample and the secondary-only control was calculated. […] Data were fit to a four-parameter non-linear regression curve using GraphPad Prism.

[19] = molecular target: T1, human BAFF-R expressed on cells; assay: cell-based or functional assay

EC50 [1]: 0.1 nM
EC50 [2]: 0.4 nM
Max FOB [2]: 57 fold over background
binding result [3]: no binding (tested: about 700 nM)
EC50 [4]: 0.19 nM
Max FOB [4]: 13 fold over background
EC50 [5]: 0.06 nM
Max FOB [5]: 3 fold over background
EC50 [6]: 0.39 nM
Max FOB [6]: 123 fold over background
EC50 [7]: 0.14 nM
Max FOB [7]: 6 fold over background
EC50 [8]: 0.07 nM
Max FOB [8]: 5 fold over background
EC50 [9]: 0.18 nM
Max FOB [9]: 12 fold over background
EC50 [10]: 0.39 nM
Max FOB [10]: 123 fold over background
B1: Parental mAb (AB1753) (antibody, V domains shown)
VH: EVQLVQSGGGVVQPGRSLRLSCAASGFTFSSYGMHWVRQAPGKGLEWVAVIWYDASNKYYGDSVKGRFTISRDNSKNTLYLQMNSLRDEDTAVYYCARRFTHLRGQYIEDYGLDVWGQGTTVTVSS
VL: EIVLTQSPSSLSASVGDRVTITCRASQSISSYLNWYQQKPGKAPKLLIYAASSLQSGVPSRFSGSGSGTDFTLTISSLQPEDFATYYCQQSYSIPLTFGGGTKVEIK
notes: also called parental BAFF-R specific antibody

EC50 [11]: 6.8 nM
EC50 [12]: > 10 nM
EC50 [13]: > 10 nM
EC50 [14]: > 15 nM
EC50 [15]: ~10 nM
EC50 [16]: 7.11 nM
IC50 [17]: > 1000 nM
IC50 [18]: 488 nM
KHYG-A-CD16Av mediated Cytolysis of Ramos cells EC50 [19]: 0.64 nM
B2: AB0369 (bispecific antibody, V domains shown)
VH: B1 VH with G44C, A55G, H102M, Q106L, Y107I, L113M
VL: not shown
notes: also called AB0369-001
